Drawing on article PMC10082178, this text covers NFAT-luciferase response to rhodocytin (30 nM) in low-expressing CLEC-2-eGFP (100 ng) DT40 cells: percent blocked by LUAS-2 (3 μM, 30 min before rhodocytin) and stoichiometry N for 2 substances.

Assay [1] has as its target N-terminal eGFP-tagged human CLEC-2 (CLEC-2-eGFP) (human) (UniProt Q9P126).
For assay [2], the target named is integrin αIIbβ3 (human (endogenous in platelets)) (UniProt P05106). Put plainly: native gel or EMSA; SMA-PAGE: whole cell SMALPs of resting human platelets (2.5% SMA, NaCl to 500 mM) on native Tris-Glycine gels, western blot with anti-αIIb or anti-CLEC-2 AYP2. In general terms: A gel shift assay detects complexes by their altered migration in electrophoresis.

Broadly, the stoichiometry N is the number of molecules, sites or subunits per partner or assembly.

Chain of UniProt Q9P126 (Q9P126 whole entry): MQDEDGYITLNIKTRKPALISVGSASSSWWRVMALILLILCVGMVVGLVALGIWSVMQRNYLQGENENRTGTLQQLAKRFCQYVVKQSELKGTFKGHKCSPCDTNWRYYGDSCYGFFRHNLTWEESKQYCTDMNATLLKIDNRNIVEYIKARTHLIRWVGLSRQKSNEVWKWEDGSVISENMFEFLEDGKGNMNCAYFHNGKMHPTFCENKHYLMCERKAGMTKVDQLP

For rhodocytin (complex), in assay [1], the NFAT-luciferase response to rhodocytin (30 nM) in low-expressing CLEC-2-eGFP (100 ng) DT40 cells: percent blocked by LUAS-2 (3 μM, 30 min before rhodocytin) amounted to 50%. In assay [2], “integrin αIIbβ3 (from UniProt P05106 27-788) (complex)” yielded a stoichiometry N of 2.
